This is an account of results in patent EP0647275B2 (Mount Sinai School of Medicine, priority 1992, dated 1994).

In assay [1] the target is human gonadotropin-releasing hormone receptor (GnRH-R), clone LC27-4 (human). Briefly: cell-based or functional assay.
Assay [2] shares this target. Briefly: displacement of 125I-GnRH-A, membranes of COS-1 cells transfected with human GnRH-R.
Assay [3] has the same target. Nature of the assay: calculated from the IC50 of inhibition of GnRH-stimulated inositol phosphate production in COS-1 cells transfected with human GnRH-R.
The target of assay [4] is T1, human GnRHR (Homo sapiens, UniProt P30968).
T1 construct: The human GnRH-R cDNA was subcloned into an expression vector, pSV2A, containing an SV40 early promoter; expressed in transfected cells; host or cells: COS-1 cells, transient DEAE-dextran transfection with pSV2A-human GnRH-R
T1 sequence (P30968 1-328): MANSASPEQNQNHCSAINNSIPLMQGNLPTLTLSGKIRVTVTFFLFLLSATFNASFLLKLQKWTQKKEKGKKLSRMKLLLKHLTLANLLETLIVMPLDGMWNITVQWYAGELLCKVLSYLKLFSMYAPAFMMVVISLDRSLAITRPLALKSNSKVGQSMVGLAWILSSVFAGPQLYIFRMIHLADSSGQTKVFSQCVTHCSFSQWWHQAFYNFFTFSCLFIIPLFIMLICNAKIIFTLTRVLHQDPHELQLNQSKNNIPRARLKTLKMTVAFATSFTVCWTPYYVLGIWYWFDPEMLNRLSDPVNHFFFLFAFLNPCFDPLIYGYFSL
Nature of the assay: 125I-GnRH-A receptor binding, membranes of COS-1 cells transfected with pSV2A-human GnRH-R. The following applies: membranes from transfected COS-1 cells; read-out: dissociation constant, displacement of GnRH-A.

Assay [5] has as its target T1, human GnRHR. Nature of the assay: Inositol phosphate production in COS-1 cells transfected with pSV2A-human GnRH-R. It is filed as cell-based. The following applies: GnRH 10^-8 M; read-out: IC50, inhibition of GnRH-stimulated inositol phosphate production. As to the method: For studies on inositol phosphate production, 1.8 x 10^5 cells/well (12-well plates) were transfected with 1.5 µg DNA. Cells were assayed 48 hours after transfection.
Accumulation of [^3H]IP in the presence of LiCl was used as an index of inositol phosphate turnover. […] The reaction was terminated by the addition of a perchloric acid solution and phytic acid. After neutralizing with KOH, the inositol phosphates were separated on a Dowex ion exchange column and counted.

The target in assay [6] is T2, mouse GnRH-R (Mus musculus, UniProt Q01776).
T2 construct: The longest open reading frame encodes a 327 amino acid protein; expressed in transfected cells; host or cells: Xenopus laevis oocytes injected with capped synthetic WZ25 RNA transcript
T2 sequence (Q01776 1-327): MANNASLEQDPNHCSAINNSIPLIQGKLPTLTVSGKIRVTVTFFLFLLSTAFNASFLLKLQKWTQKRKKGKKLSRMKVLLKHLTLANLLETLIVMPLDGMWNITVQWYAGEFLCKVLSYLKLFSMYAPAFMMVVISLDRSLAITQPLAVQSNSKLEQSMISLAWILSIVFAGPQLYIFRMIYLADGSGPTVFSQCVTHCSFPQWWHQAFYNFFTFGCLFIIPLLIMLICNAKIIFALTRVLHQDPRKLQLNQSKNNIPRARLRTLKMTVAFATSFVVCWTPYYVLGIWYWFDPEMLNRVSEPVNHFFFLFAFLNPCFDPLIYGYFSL
Briefly: Electrophysiological response of Xenopus oocytes injected with WZ25 RNA transcript (two-electrode voltage clamp). The following applies: for response of RNA-injected oocytes to agonist: buserelin 100 nM. It is filed as cell-based. As to the method:
Adult female Xenopus laevis (Nasco, Ft. Atkinson, WI) were kept at 18-20°C and a day/night cycle of 15h/9h. […] Peptide ligands were diluted in the perfusion buffer and introduced into the bath. The clamp current was recorded using a chart recorder. Reversal potentials were determined by continuous ramping from -70 to +10 mV over 2 seconds with and without agonist through an IBM PC/AT system using the TL-1 interface and pCLAMP software from Axon Instruments (Burlingame, CA).
WZ25 in pBluescript II SK+ (Stratagene) was linearized and capped RNA transcript synthesized using T3 RNA polymerase (Stratagene).

Assay [7] addresses T1, human GnRHR. Briefly: Electrophysiological response of Xenopus oocytes injected with LC27-4 RNA transcript. In kind it is cell-based. The following applies: 2 x 10^-7 M agonist; LC27-4 RNA-injected oocytes. How it is done: Construct LC27-4 was linearized and capped RNA transcript synthesized using T3 RNA polymerase. Oocyte preparation and electrophysiology were performed as previously described (Sealfon et al., 1990, Mol. Endocrinol. 4:119-124). Cells were injected with 1-10 ng of synthetic transcript and electrophysiology recorded via two-electrode voltage clamp 48 hours later. All agonists and antagonists were applied at a concentration of 0.2 µM.

The target in assay [8] is mouse gonadotropin-releasing hormone receptor (GnRH-R), clone WZ25 (mouse). Nature of the assay: cell-based or functional assay.
For assay [9] the target is unchanged. Briefly: displacement of 125I-GnRH-A by GnRH-A, membranes of WZ25 RNA-injected oocytes. For orientation: In a radioligand displacement assay an active substance lowers the binding of a labelled ligand.
The target is the same in assay [10]. Nature of the assay: displacement of 125I-GnRH-A by GnRH-A, alphaT3-1 cell membranes (endogenous mouse receptor).
The target is the same in assay [11]. Nature of the assay: radioligand binding of 125I-GnRH-A to membranes of WZ25 RNA-injected oocytes; non-specific binding with 10^-6 M GnRH analogue was 662 cpm.
The target in assay [12] is T2, mouse GnRH-R. Briefly: 125I-GnRH-A radioligand binding assay, membranes of WZ25 RNA-injected oocytes. To be noted: WZ25 RNA-injected oocyte membranes; read-out: Kd, displacement of 125I-GnRH-A. As to the method: For membrane preparation, 500 oocytes were each injected with 2.5 ng synthetic WZ25 RNA.
A further assay has as its target T3, GnRH-R (Mus musculus, UniProt Q01776).
T3 construct: similar Kds of 4.5 and 2.9 nM in WZ25 RNA-injected oocyte membranes and αT3-1 cell membranes respectively; endogenous in cells; host or cells: αT3-1 mouse gonadotrope cell membranes, combined with membranes from uninjected oocytes
T3 sequence (Q01776 1-327): T2 sequence (Q01776 1-327)
Nature of the assay: 125I-GnRH-A radioligand binding assay, αT3-1 cell membranes. The following applies: read-out: Kd, displacement of 125I-GnRH-A.

pIC50, pKd: −log10 of the molar value. Non-standard residues stand in square brackets, D forms with d. Residues, ends and D or L forms follow the SMILES beside them. d(pGlu) = O=C1CC[C@H](C(=O)O)N1; pGlu = O=C1CC[C@@H](C(=O)O)N1

In turn, “antagonist 5: [D-pGlu^1,D-Phe^2,D-Trp^3,6]GnRH (from UniProt P01148 24-92) (peptide)” registered an IC50 of inhibition of GnRH-stimulated (10^-8 M) inositol phosphate production, transfected COS-1 cells in [1] of 105 nM. Moreover, the pKd in [2] was 8.08; in [3], 8.44.
The term pIC50 denotes the negative decadic logarithm of the IC50, by convention in mol/L. As to `CC(C)C[C@H](NC(=O)[C@@H](Cc1c[nH]c2ccccc12)NC(=O)[C@H](Cc1ccc(O)cc1)NC(=O)[C@H](CO)NC(=O)[C@@H](Cc1c[nH]c2ccccc12)NC(=O)[C@@H](Cc1ccccc1)NC(=O)[C@H]1CCC(=O)N1)C(=O)N[C@@H](CCCNC(=N)N)C(=O)N1CCC[C@H]1C(=O)NCC(N)=O` [antagonist 5, [D-pGlu^1,D-Phe^2,D-Trp^3,6]GnRH] ([d(pGlu)][dF][dW]SY[dW]LRPG-NH2), the pKd at human GnRHR [4] was 8.08. Also, the pIC50 at human GnRHR [5] was 6.98.
“D-Ser(But)^6,Pro^9-N-ethylamide GnRH [buserelin]”: the “response of RNA-injected oocytes to agonist” value was “elicited a depolarizing current” in the assay with mouse GnRH-R [6] (WZ25 RNA-injected oocytes) and “large depolarizing currents” with human GnRHR [7].
With `CC(C)C[C@H](NC(=O)CNC(=O)[C@H](Cc1ccc(O)cc1)NC(=O)[C@H](CO)NC(=O)[C@H](Cc1c[nH]c2ccccc12)NC(=O)[C@H](Cc1cnc[nH]1)NC(=O)[C@@H]1CCC(=O)N1)C(=O)N[C@@H](CCCNC(=N)N)C(=O)N1CCC[C@H]1C(=O)NCC(N)=O` [GnRH, gonadotropin-releasing hormone], the entries for the “response of RNA-injected oocytes to agonist” value at mouse GnRH-R [6] (WZ25 RNA-injected oocytes) and on human GnRHR [7] were “large depolarizing response” and “large depolarizing currents”, respectively. Moreover, at mouse GnRH-R [6] (WZ25 RNA-injected oocytes, n=4), the “response to GnRH alone” value is 4756±1082 nA. Besides, the “Vr of the current elicited by GnRH” value on mouse GnRH-R [6] (oocytes injected with WZ25 RNA transcript, n=7) is -27±0.79 mV.
In [1], “gonadotropin-releasing hormone (GnRH) (from UniProt P01148 24-92) (peptide)” showed an EC50 of inositol phosphate production, COS-1 cells transfected with human GnRH-R of 3 nM and an increase in phosphoinositol metabolism at maximal receptor stimulation, COS-1 cells transfected with human GnRH-R of 8 fold. Moreover, the response to GnRH alone (clamp current) in WZ25 RNA-injected oocytes in assay [8] came to 4760 nA.
As for “GnRH antagonist [D-Phe^2.6,Pro^3]-GnRH (from UniProt P01148 24-92) (peptide)”, in assay [8], the reduction in the response to GnRH in the presence of equimolar antagonist, WZ25 RNA-injected oocytes turned out to be 60% and the response to GnRH (clamp current) in the presence of equimolar antagonist, WZ25 RNA-injected oocytes amounted to 1880 nA.
In the case of “[D-Ala^6, NaMe-Leu^7, Pro^9-NHEt]GnRH (GnRH-A) (from UniProt P01148 24-92) (peptide)”, the values for the pKd in [9], in [2] and in [10] were 8.35, 9.01 and 8.54, respectively. For the same compound, the Bo (maximal binding) in assay [11] stood at 1430 cpm.
“antagonist 13: [Ac-D-NaI^1,D-α-4-ClPhe^2,D-Pal^3,D-Arg^6, D-Ala^10]GnRH (from UniProt P01148 24-92) (peptide)” yielded an IC50 of inhibition of GnRH-stimulated (10^-8 M) inositol phosphate production, transfected COS-1 cells in [1] of 6.7 nM. The pKd in [3] was 9.68.
For the compound `CCNC(=O)[C@@H]1CCCN1C(=O)[C@H](CCCNC(=N)N)NC(=O)[C@H](CC(C)C)N(C)C(=O)[C@@H](C)NC(=O)[C@H](Cc1ccc(O)cc1)NC(=O)[C@H](CO)NC(=O)[C@H](Cc1c[nH]c2ccccc12)NC(=O)[C@H](Cc1cnc[nH]1)NC(=O)[C@@H]1CCC(=O)N1` [GnRH-A, [D-Ala^6, NaMe-Leu^7, Pro^9-NHEt]GnRH], the results for the pKd on mouse GnRH-R [12], on GnRH-R and at human GnRHR [4] were 8.35, 8.54 and 9.01, respectively.
Consider `CC(C)C[C@H](NC(=O)[C@@H](Cc1ccccc1)NC(=O)[C@H](Cc1ccc(O)cc1)NC(=O)[C@H](CO)NC(=O)[C@@H]1CCCN1C(=O)[C@@H](Cc1ccccc1)NC(=O)[C@@H]1CCC(=O)N1)C(=O)N[C@@H](CCCNC(=N)N)C(=O)N1CCC[C@H]1C(=O)NCC(N)=O` [[D-Phe^2.6, Pro^3]GnRH, [D-Phe^2.6,Pro^3]-GnRH] ([pGlu][dF]PSY[dF]LRPG-NH2), for which the “response to GnRH in the presence of equimolar antagonist” value on mouse GnRH-R [6] (WZ25 RNA-injected oocytes, n=5) is recorded as 1880±551 nA. On mouse GnRH-R [6] (equimolar antagonist, in comparison with the response to GnRH alone), the “reduction in the response to GnRH” value amounted to 60%.
Regarding “[Ac-D-NaI^1,D-α-4-ClPhe^2,D-Pal^3,D-Arg^6, D-Ala^10]GnRH [antagonist 13]”, the negative-log IC50 (pIC50) with human GnRHR [5] is 8.17.
